Source: publication PMC3605701
Read-outs that look alike come from different tables or passages of the source.

How the values were obtained:
Assay in all cases: SEC
[1] = biological target: endogenous Xenopus Cdt1/RLF-B (Xenopus (endogenous in egg extract)) (UniProt Q9I9A7)
[2] = biological target: endogenous Xenopus Cdt1/RLF-B (Xenopus (endogenous in egg extract)) (UniProt Q9I9A7); remark: listed apart in the source
[3] = biological target: endogenous Xenopus Cdt1/RLF-B (Xenopus (endogenous in egg extract)) (UniProt Q9I9A7); remark: listed apart in the source

UniProt Q9I9A7, sequence (Q9I9A7 whole entry): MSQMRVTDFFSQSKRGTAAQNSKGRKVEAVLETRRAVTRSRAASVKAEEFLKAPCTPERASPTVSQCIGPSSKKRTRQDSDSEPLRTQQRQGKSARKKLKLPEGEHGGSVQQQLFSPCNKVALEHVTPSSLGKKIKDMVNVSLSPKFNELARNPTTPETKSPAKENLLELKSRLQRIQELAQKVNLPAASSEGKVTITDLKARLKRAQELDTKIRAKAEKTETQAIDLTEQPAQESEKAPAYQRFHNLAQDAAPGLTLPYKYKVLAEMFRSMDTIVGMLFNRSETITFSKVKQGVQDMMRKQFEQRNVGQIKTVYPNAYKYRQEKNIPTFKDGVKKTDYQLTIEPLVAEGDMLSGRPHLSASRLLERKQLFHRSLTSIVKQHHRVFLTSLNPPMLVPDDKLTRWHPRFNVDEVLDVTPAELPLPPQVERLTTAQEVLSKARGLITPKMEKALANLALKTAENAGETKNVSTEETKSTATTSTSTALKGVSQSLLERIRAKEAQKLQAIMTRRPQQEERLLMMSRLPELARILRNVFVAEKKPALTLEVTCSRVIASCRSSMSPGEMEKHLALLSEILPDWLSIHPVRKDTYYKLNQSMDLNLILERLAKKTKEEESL

## endogenous Xenopus geminin (from UniProt O93352 1-219) (natural protein)
[1]
  percent of geminin co-fractionating with Cdt1/RLF-B: 45%
[2]
  percent of geminin co-fractionating with Cdt1/RLF-B: 61%
  percent of geminin in the smaller complex without Cdt1/RLF-B: > 95%
[3]
  percent of geminin co-fractionating with Cdt1/RLF-B: 24%
